# Measured values as given in US20220064302A1 (GIGAGEN, published 2022).
# Residue numbers refer to the chain shown, from its start.
# B1: A2 (antibody, V domains shown)
# VH: QVQLVESGGGVVQPGRSLRLSCAASGFTFSSYGMHWVRQAPGKGLEWVALISYDGSNKYYADSVKGRFTISRDNSKNTLYLQMNSLRAEDTAVYYCARGGYFDPYGDYYYGMDVWGQGTTVTVSS
# VL: DIQMTQSPSSLSASVGDRVTITCRASQAIRNDLGWFQQKPGKAPKRLIYAASSLQSGVPLRFSGSGSGTEFTLTISSLQPEDFATYYCLQHNSFPWTFGQGTKVEIKR
# notes: Tested as full-length mAb expressed in CHO cells; also called antibody A2; L2H2
# B2: A5 (antibody, V domains shown)
# VH: QVQLVESGGGVVQPGRSLRLSCAASGFTFSNYGTHWVRQAPGKGLEWVAVIWYDGSNKYYADSVKGRFTISRDNSKNTLYLQMNSLRAEDTAVYYCARDRIYCSSTRCIGFGYYYYGMDVWGQGTTVTVSS
# VL: AIQLTQSPSSLSASVGDRVTITCRASQGISSALAWYQQKPGKAPKLLIYDASSLESGVPSRFSGSGSGTDFTLTISSLQPEDFATYYCQQFNNYPWTFGQGTKVEIKR
# notes: Tested as full-length mAb expressed in CHO cells; also called antibody A5; L5H5
# B3: A1 (antibody, V domains shown)
# VH: QVQLVESGGGVVQPGRSLRLSCAASGFTFSNYGMHWVRQAPGKGLEWVAVIWYDGSNKYYTDSVKGRFTISRDNSKNTLYLQMNSLRAEDTAVYYCAGGGNYYGDYWGQGTLVTVSS
# VL: B1 VL with A28G, F36Y, A50V, L60S, F94Y, W96L, Q100G
# notes: Tested as full-length mAb expressed in CHO cells; also called antibody A1; L1H1
# B4: A3 (antibody, V domains shown)
# VH: B3 VH with V11E, N31D, T61A, N101S, Y103W
# VL: B1 VL with A28G, D32E, F36Y, L60S, N92Y, S93I, F94Y
# notes: Tested as full-length mAb expressed in CHO cells; also called antibody A3; L3H3
# B5: A7 (antibody, V domains shown)
# VH: QVQLVQSGAEVKKPGASVKVSCKASGYTFTSYGINWVRQAPGQGLEWMGWISAYNGNRNYAQNLQGRVTMTSDTSTNTAYMELRSLRSYDTAVYYCARDHYDILTGYYKGGFDYWGQGTLVTVSS
# VL: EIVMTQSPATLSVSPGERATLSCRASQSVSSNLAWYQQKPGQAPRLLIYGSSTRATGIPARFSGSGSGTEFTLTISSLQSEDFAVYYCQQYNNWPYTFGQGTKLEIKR
# notes: Tested as full-length mAb expressed in CHO cells; also called antibody A7; L7H7
# B6: A11 (antibody, V domains shown)
# VH: QVQLVQSGAEVKKPGASVKVSCRASGYTFTNYGISWVRQAPGQGLEWMGWISVYSDNTHYPQKLQGRVTMTTDTSTSTAYMELRSLRSDDTAVYYCARDGSHGDYYYVMDLWGQGTTVTVSS
# VL: DIQMTQSPSSLSASVGDSITITCRASQGISSWLAWYQQKPEKAPKSLIYAASSLQSGVPSRFSGSGSGTDFTLTISSLQPEDFATYYCQQFNSYPYTFGQGTKLEIK
# notes: Tested as full-length mAb expressed in CHO cells; also called antibody A11; L11H11
# B7: A28 (antibody, V domains shown)
# VH: QVQLVESGGGLVKPGGSLKLSCAASGFTFSDYGMHWVRQAPEKGLEWVAYISSGSFAIYYADTVRGRFTISRDSAKNTLFLQMTSLRSEDTAMYYCARRGPYPYYYSMDYWGQGTSVTVSS
# VL: AIQMTQSPSSLSASVGDRVTITCRASQGISSALAWYQQKPGKAPKLLIYAASTLQSGVPSRFSGSGSGTDFTLTISSLQPEDFATYYCLQDYNYPWTFGQGTKVEIK
# notes: Tested as full-length mAb expressed in CHO cells; also called antibody 28; L28H28
# B8: A19 (antibody, V domains shown)
# VH: QVQLVESGGGVVQPGRSLRLSCAASGFTFSNYGMYWVRQAPGKGLEWVAVIWYDGSNKYYADSVKGRFTISRDNSKNTLYLQMNSLRAEDTAVYYCAGGGDILTGDYWGQGTLVTVSS
# VL: DIQMTQSPSSLSASVGDRVTITCRASQGIRNDLGWYQQKPGKAPKRLIYAASSLQSGVPSRFSGSGSGTEFTLTISSLQPEDFATYYCLQYKSYLYTFGQGTKLEIK
# notes: Tested as full-length mAb expressed in CHO cells; also called antibody 19; L19H19
# B9: A27 (antibody, V domains shown)
# VH: QVQLVQSGAELVRPGTSVKLSCRASGYTFTTYWMHWVKQRPGQGLEWIGVIDPSDSYTYYNQKFKGKATLTVDTSSSTAYMQLSSLTSEDSAVYFCARNWDYWGQGTTLTVSS
# VL: AIQLTQSPSSLSASVGDRVTITCRASQGISSALAWYQQKPGKAPKLLIYDASSLESGVPSRFSGSGSGTDFTLTISSLQPEDFATYYCQQFNDYALTFGGGTKVEIK
# notes: Tested as full-length mAb expressed in CHO cells; also called antibody 27; L27H27
# B10: A16 (antibody, V domains shown)
# VH: B3 VH with R19T, H35Y, T61A, N101S, Y103S
# VL: DIQMTQSPSSLSASVGDRVTITCRTSQDIRNDLGWYQQKPGKAPKRLIYAVSSLQSGVPSRFSGSGSGTEFTFTISSLQPEDFATYYCLQYNTYPFTFGPGTTVDIK
# notes: Tested as full-length mAb expressed in CHO cells; also called antibody 16; L16H16
# B11: A17 (antibody, V domains shown)
# VH: B3 VH with N31S, K58Q, T61A, Y80F, Y95F, Y106F
# VL: B8 VL with K92I, L95P, Y96W, L104V
# notes: Tested as full-length mAb expressed in CHO cells; also called antibody 17; L17H17
# B12: A23 (antibody, V domains shown)
# VH: QVQLVESGGGVVQPGRSLRLSCVASGFTFSNYGMHWVRQAPGKGLEWVAIIWYDGSIKYYADSVKGRFTISRDNSKNTLHLQMNSLRAEDTAVYYCARWGIYFDYWGQGTLVTVSS
# VL: EIVMTQSPATLSVSPGERATLSCRASQSVSSNLAWYQQKPGQAPRLLIYGASTRATGIPARFSGSGSGTEFTLTISSLQSEDFAVYYCQQYHNWPLTFGGGTKVEIK
# notes: Tested as full-length mAb expressed in CHO cells; also called antibody 23; L23H23
# B13: A24 (antibody, V domains shown)
# VH: QVQLVESGGGVVQPGRSLRLSCAASGFTFSDSGMHWVRQAPGKGLEWVAVIWYDGSKKYYVDSVKGRFTISRDNSKNTLYLQMNSLRAEDTAVYYCATEGDYWGQGTLVTVSS
# VL: B12 VL with S14F, A34G, I48M, A55V, H92N, N93T, L96R, G100Q
# notes: Tested as full-length mAb expressed in CHO cells; also called antibody 24; L24H24
# B14: A26 (antibody, V domains shown)
# VH: QVQLVESGGGVVQPGRSLRLSCAASGFTFSDYGMHWVRQAPGKGLEWVAVIWYDGSNKYYTDSVKGRFTISRDNSKNTLYLQMSSLRAEDAAVYYCAVNPFDYWGQGTLVTVSS
# VL: DIQMTQSPSSLSASVGDRVTISCRASQGISNYLAWYQQKPGKVPKVLIYGASTLQSGVPSRFSGSGSGTDFTLTISSLQPEDVATYYCQKYNSAPYTFGQGTKLEIK
# notes: Tested as full-length mAb expressed in CHO cells; also called antibody 26; L26H26
# Target: T1, human PD-1 (soluble PD-1 protein, R&D Systems) (human, UniProt Q15116 25-170, limits assumed)
# T1 construct: the kinetics paragraphs say only 'PD-1' / 'antigen'; also called hPD-1; soluble PD-1 immunogen
# Experiment: array SPR, mAb captured on anti-human IgG Fc, PD-1 as analyte
# Method: (§1) For SPR, a moderate density (»1,000 Response Units) of an antihuman IgG-Fc reagent (Southern Biotech 2047-01) was amine-coupled to a Xantec CMD-50M chip (50 nm carboxymethyldextran medium density of functional groups) activated with 133 mM EDC (Sigma) and 33.3 mM S-NHS (ThermoFisher) in 100 mM MES pH 5.5. Then, goat anti-Human IgG Fc (Southern Biotech 2047-01) was coupled for 10 minutes at […] in 10 mM Sodim Acetate pH 4.5 (Carterra Inc.). The surface was then deactivated with 1 M ethanolamine pH 8.5 (Carterra Inc.). Running buffer used for the lawn immobilization was HBS-EPC (10 mM HEPES, 150 mM NaCl, 3 mM EDTA, 0.05% Tween 20, pH 7.4; Teknova).
# (§2) The sensor chip was then transferred to a continuous flow microspotter (CFM; Carterra Inc.) for array capturing. The mAb supernatants were diluted 50-fold ([…] final concentration) into HBS-EPC with 1 mg/mL BSA. The samples were each captured twice with 15-minute and 4-minute capture steps on the first and second prints, respectively, to create multiple densities, using a […] flow rate. The running buffer in the CFM was also HBS-EPC.
# (§3) Next, the sensor chip was loaded onto an SPR reader (MX-96 system; Ibis Technologies) for the kinetic analysis. […] PD-1 injections were 5 minutes with a 15-minute dissociation at […] in a non-regenerative kinetic series. An injection of the goat anti-Human IgG Fc capture antibody at […] was injected at the end of the series to verify the capture level of each mAb. Binding data was double referenced by subtracting an interspot surface and a blank injection and analyzed for ka (on-rate), kd (off-rate), and KD (affinity) using the Kinetic Interaction Tool software (Carterra Inc.).
# T1 sequence (Q15116 25-170 limits assumed): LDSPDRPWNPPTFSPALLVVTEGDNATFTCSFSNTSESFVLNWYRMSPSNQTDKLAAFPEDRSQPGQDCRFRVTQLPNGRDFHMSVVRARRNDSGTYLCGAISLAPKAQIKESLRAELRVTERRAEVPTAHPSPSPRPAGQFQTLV
Kd [nM],Binder,binding result
130,B1,–
35,B2,–
3.7,B3,–
230,B4,–
160,B5,–
–,B6,no binding (tested: PD-1 injected up to 500 nM)

# Target: PD-1 expressed on cells (human, UniProt Q15116 25-288)
# Experiment: cell-based or functional assay
# PD-1 expressed on cells, sequence (Q15116 25-288 limits assumed): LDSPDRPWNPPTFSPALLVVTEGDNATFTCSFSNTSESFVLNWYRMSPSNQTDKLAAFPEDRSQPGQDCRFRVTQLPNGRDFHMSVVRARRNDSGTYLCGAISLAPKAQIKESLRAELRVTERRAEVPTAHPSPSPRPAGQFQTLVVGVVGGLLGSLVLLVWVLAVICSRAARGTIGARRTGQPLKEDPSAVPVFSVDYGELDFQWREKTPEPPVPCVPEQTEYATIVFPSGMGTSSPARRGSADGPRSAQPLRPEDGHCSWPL
row,"PD-1/PD-L1 blockage (IC50, µg/ml) [µg/mL]",Binder
1,0.542,B7
2,> 3.16,B8
3,0.528,B9
4,1.31,B2
5,0.556,B10
6,2.39,B3
7,0.533,B11
8,1.34,B4
9,0.116,B12
10,0.266,B13
11,1.31,B6
12,0.641,B14

# Target: T1, human PD-1 (soluble PD-1 protein, R&D …)
# Experiment: array SPR (Carterra), mAb captured, PD-1 as analyte
# Method: as §1, §2, §3
Kd [nM],koff [s⁻¹],kon [M⁻¹ s⁻¹],Binder
130,0.011,80000,B1
35,0.00023,6400,B2
3.7,2.6e-05,7000,B3
230,0.0024,10000,B4
160,0.002,12000,B5

# Target: T1, human PD-1 (soluble PD-1 protein, R&D …)
# Experiment: BLI, mAb on AHC biosensor, PD-1 as analyte
# Method: The binding specificity and affinity of each full-length antibody towards PD-1 were determined using BLI and/or SPR. […] Anti-cyno PD-1 affinity was measured using BLI.
# (§4) For BLI, antibodies were loaded onto an Anti-Human IgG Fc (AHC) biosensor using the Octet Red96 system (ForteBio). Loaded biosensors were dipped into antigen dilutions beginning at 300 nM, with 6 serial dilutions at 1:3. Kinetic analysis was performed using a 1:1 binding model and global fitting.
row,Kd [nM],Binder
1,23.8,B7
2,57.1,B8
3,13.8,B9
4,86,B10
5,326,B11
6,83.8,B12
7,8.5,B13
8,6,B14

# Target: T1, human PD-1 (soluble PD-1 protein, R&D …)
# Experiment: BLI (ForteBio), mAb on AHC biosensor, PD-1 as analyte
# Method: as §4
Kd [nM],koff [s⁻¹],kon [M⁻¹ s⁻¹],Binder
23.8,0.00418,176000,B7
57.1,0.00107,18700,B8
13.8,0.000972,70400,B9
86,0.00655,76100,B10
326,0.0079,24200,B11
83.8,0.00184,22000,B12
8.5,0.00185,217000,B13
5.98,0.00104,174000,B14
